{"source": "patent US20150322137A1", "key": {"[1]": {"biological_target": "FP-TM(-)-His, His-Tag-added hMPV (JPS02-76) FP lacking the transmembrane region (amino acid residues 491 to 539 of FP) (human metapneumovirus, strain JPS02-76 (type B1)) (UniProt Q6WB98)", "assay": "SPR, Biacore T-200; antibody captured by anti-human IgG, FP-TM(-)-His as analyte"}, "[2]": {"biological_target": "FP-TM(-)-His, His-Tag-added hMPV (JPS02-76) FP lacking the transmembrane region (amino acid residues 491 to 539 of FP) (human metapneumovirus, strain JPS02-76 (type B1)) (UniProt Q6WB98)"}, "[3]": {"biological_target": "F protein of human metapneumovirus strain JPS05-21 (type B2), on infectious virus (human metapneumovirus, strain JPS05-21 (type B2))", "assay": "cell-based or functional assay"}, "[4]": {"biological_target": "F protein of human metapneumovirus strain JPS03-180 (type A1), on infectious virus (human metapneumovirus, strain JPS03-180 (type A1))", "assay": "cell-based or functional assay"}, "[5]": {"biological_target": "F protein of human metapneumovirus strain JPS02-76 (type B1), on infectious virus (human metapneumovirus, strain JPS02-76 (type B1)) (UniProt Q6WB98)", "assay": "cell-based or functional assay"}, "[6]": {"biological_target": "F protein of human metapneumovirus strain JPS03-178 (type A2), on infectious virus (human metapneumovirus, strain JPS03-178 (type A2))", "assay": "cell-based or functional assay"}}, "note": "Where two headings read alike, the source gives them in different places."}
{"substance": "mouse anti-hMPV antibody mAb338", "values": [{"measurement": "Kd", "setting": "[1]", "value": 0.531, "unit": "nM"}, {"measurement": "koff", "setting": "[1]", "value": 0.000228, "unit": "s⁻¹"}, {"measurement": "kon", "setting": "[1]", "value": 434000, "unit": "M⁻¹ s⁻¹"}, {"measurement": "Kd", "setting": "[2]", "value": "< 10", "unit": "nM"}, {"measurement": "IC50, neutralizing activity (hMPV infection of LLC-MK2 cells; GraphPad Prism 6)", "setting": "[3]", "value": 0.221, "unit": "µg/mL"}, {"measurement": "IC60, neutralizing activity (hMPV infection of LLC-MK2 cells; GraphPad Prism 6)", "setting": "[3]", "value": 0.261, "unit": "µg/mL"}, {"measurement": "IC90, neutralizing activity (hMPV infection of LLC-MK2 cells; GraphPad Prism 6)", "setting": "[3]", "value": 0.547, "unit": "µg/mL"}, {"measurement": "IC50, neutralizing activity (hMPV infection of LLC-MK2 cells; GraphPad Prism 6)", "setting": "[4]", "value": 0.125, "unit": "µg/mL"}, {"measurement": "IC60, neutralizing activity (hMPV infection of LLC-MK2 cells; GraphPad Prism 6)", "setting": "[4]", "value": 0.16, "unit": "µg/mL"}, {"measurement": "IC90, neutralizing activity (hMPV infection of LLC-MK2 cells; GraphPad Prism 6)", "setting": "[4]", "value": 0.498, "unit": "µg/mL"}, {"measurement": "IC50, cell-to-cell spread inhibitory activity (LLC-MK2 cells stably expressing TMPRSS2)", "setting": "[5]", "value": 0.0215, "unit": "µg/mL"}, {"measurement": "IC50, neutralizing activity (hMPV infection of LLC-MK2 cells; GraphPad Prism 6)", "setting": "[5]", "value": 0.281, "unit": "µg/mL"}, {"measurement": "IC60, neutralizing activity (hMPV infection of LLC-MK2 cells; GraphPad Prism 6)", "setting": "[5]", "value": 0.338, "unit": "µg/mL"}, {"measurement": "IC90, cell-to-cell spread inhibitory activity (LLC-MK2 cells stably expressing TMPRSS2)", "setting": "[5]", "value": 0.0938, "unit": "µg/mL"}, {"measurement": "IC90, neutralizing activity (hMPV infection of LLC-MK2 cells; GraphPad Prism 6)", "setting": "[5]", "value": 0.772, "unit": "µg/mL"}, {"measurement": "IC50, neutralizing activity (hMPV infection of LLC-MK2 cells; GraphPad Prism 6)", "setting": "[6]", "value": 0.18, "unit": "µg/mL"}, {"measurement": "IC60, neutralizing activity (hMPV infection of LLC-MK2 cells; GraphPad Prism 6)", "setting": "[6]", "value": 0.239, "unit": "µg/mL"}, {"measurement": "IC90, neutralizing activity (hMPV infection of LLC-MK2 cells; GraphPad Prism 6)", "setting": "[6]", "value": 0.856, "unit": "µg/mL"}]}
